Data on four molecules can be found in US20150344570A1 (published 2015).

One experiment deals with T1, FcγRIIIa (human, UniProt P08637 17-208).
T1 construct: extracellular domain; Soluble extracellular domain with a C-terminal His tag, expressed in FreeStyle293 cells and used as the analyte in Biacore; also called FcgRIIIa; CD16A; not shown: His tag attached to the C terminus
The experiment in a line: SPR (Biacore); KD of GpH7-TA7/GpH7-B78/GpL16-k0 for FcγRIIIa divided by the KD of this antibody. Here is the method: Then, K334G was also assessed in the same manner. GpH7-TA40 (SEQ ID NO: 47) resulting from the introduction of K334G into GpH7-TA7 was constructed, and expressed and prepared in combination with GpH7-B78 according to the method described in Reference Example 1. Furthermore, GpH7-TA50 (SEQ ID NO: 48) resulting from the introduction of K334G into GpH7-B78 was constructed, and expressed and prepared in combination with GpH7-TA7 according to the method described in Reference Example 1. To assess the effect of combinations with K334G, the prepared antibodies were compared for the FcγRIIIa binding according to the method described in Reference Example 2 (Table 18).
Analysis of interaction between objective antibody and the FcγR was carried out using Biacore T100 (GE Healthcare). HBS-EP+ (GE Healthcare) was used as the running buffer, and the measurement temperature was set to 25° C. Chips produced by immobilizing the antigen peptide by the amine coupling method to a Series S Sencor Chip CM5 (GE Healthcare), or alternatively, chips produced by allowing preliminarily biotinylated antigen peptides to interact with and immobilize onto a Series S Sensor Chip SA (certified) (GE Healthcare) were used. Antibodies of interest were captured onto an antigen peptide-immobilized chip, and allowed to interact to each FcγR diluted with running buffer. […]
A general note: Surface plasmon resonance follows binding to a sensor surface in real time, without labels.

The next experiment concerns the target FcγRIa (human, UniProt P12314 16-292). The experiment in a line: SPR (Biacore), relative binding.
For a further experiment, the target named is T2, FcgRIIb (human, UniProt P31994 43-217).
T2 construct: extracellular domain; also called FcγRIIb; CD32B
T2 sequence (looked up): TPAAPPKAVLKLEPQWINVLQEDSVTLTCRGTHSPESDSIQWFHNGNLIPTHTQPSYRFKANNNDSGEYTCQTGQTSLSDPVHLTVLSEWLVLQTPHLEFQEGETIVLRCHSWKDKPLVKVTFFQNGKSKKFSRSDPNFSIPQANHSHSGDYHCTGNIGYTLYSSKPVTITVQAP
The experiment in a line: SPR (Biacore), antibody captured, FcgR as analyte. Here is the method: (§1) Specifically, H240-Kn120 (SEQ ID NO: 99) resulting from introduction of S239M into H240-Kn067 and H240-Kn126 (SEQ ID NO: 100) resulting from introduction of Y235Q into H240-Kn120 were prepared according to the method described in Reference Example 1. […] Those described above were assayed for the binding to each FcgR according to the method described in Reference Example 8.
(§2) Analysis of interaction between objective antibody and the FcγR was carried out using Biacore T100 (GE Healthcare), Biacore T200, Biacore A100, and Biacore 4000. HBS-EP+ (GE Healthcare) was used as the running buffer, and the measurement temperature was set to 25° C. Chips produced by immobilizing the antigen peptide by the amine coupling method to a Series S sensor Chip CM5 (GE Healthcare), chips produced by allowing preliminarily biotinylated antigen peptides to interact with and immobilize onto a Series S Sensor Chip SA (certified) (GE Healthcare), chips produced by immobilizing Protein L (ACTIGEN, BioVision) to Series S Sencor Chip CM5 (GE Healthcare), or chips produced by immobilizing Protein A/G (Thermo Scientific) to Series S Sencor Chip CM5 (GE Healthcare) were used. Antibodies of interest were captured onto these chips, and allowed to interact to each FcγR diluted with running buffer. To regenerate and repeatedly use the chip, the antibodies captured onto the chip were washed off by reacting 10 mM glycine-HCl, pH 1.5.

A further experiment deals with T3, FcgRIIIa F (human, UniProt P08637 17-208).
T3 construct: extracellular domain; polymorphic site made after J. Clin. Invest; also called FcγRIIIa F
Kind of experiment: SPR (Biacore), antibody captured, FcgR as analyte. How it is done: as §1, §2

A further experiment has as its target T4, FcgRIIa H (human, UniProt P12318 34-217).
T4 construct: extracellular domain; also called FcγRIIa H; FcγRIIa type H
T4 sequence (looked up): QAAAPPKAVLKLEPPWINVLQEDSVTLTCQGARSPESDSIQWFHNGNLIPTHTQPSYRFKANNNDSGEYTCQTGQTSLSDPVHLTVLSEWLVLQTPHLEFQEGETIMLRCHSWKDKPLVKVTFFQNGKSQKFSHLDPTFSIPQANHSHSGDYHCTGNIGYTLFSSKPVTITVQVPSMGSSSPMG
The experiment in a line: SPR (Biacore), antibody captured, FcgR as analyte. Here is the method:
as §1, §2

Another experiment concerns the target T5, FcgRIIIa V (human, UniProt P08637 17-208).
T5 construct: extracellular domain; polymorphic site made after J. Clin. Invest; also called FcγRIIIa V
The experiment in a line: SPR (Biacore), antibody captured, FcgR as analyte. Here is the method:
as §1, §2

The target in the next experiment is T6, FcgRIa (human, UniProt P12314 16-292).
T6 construct: extracellular domain; also called FcγRIa; FcγRI
The experiment in a line: SPR (Biacore), antibody captured, FcgR as analyte. How it is done:
as §1, §2

The next experiment has as its target T7, FcgRIIa R (human, UniProt P12318 34-217).
T7 construct: extracellular domain; also called FcγRIIa R; FcγRIIa type R
T7 sequence (looked up): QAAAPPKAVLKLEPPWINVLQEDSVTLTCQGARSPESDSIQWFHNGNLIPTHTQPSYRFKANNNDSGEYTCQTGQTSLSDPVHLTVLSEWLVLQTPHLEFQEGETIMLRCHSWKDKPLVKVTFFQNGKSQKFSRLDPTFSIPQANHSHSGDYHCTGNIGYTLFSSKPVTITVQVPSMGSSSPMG
Kind of experiment: SPR (Biacore), antibody captured, FcgR as analyte. Here is the method:
as §1, §2

Sequence of FcγRIa (P12314 16-292): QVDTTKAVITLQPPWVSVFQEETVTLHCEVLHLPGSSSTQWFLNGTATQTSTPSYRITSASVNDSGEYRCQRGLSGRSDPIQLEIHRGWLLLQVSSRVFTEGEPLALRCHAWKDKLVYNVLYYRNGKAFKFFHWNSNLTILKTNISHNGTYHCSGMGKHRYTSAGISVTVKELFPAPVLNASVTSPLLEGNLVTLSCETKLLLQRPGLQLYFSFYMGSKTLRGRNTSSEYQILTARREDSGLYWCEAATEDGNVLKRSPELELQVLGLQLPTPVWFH
T5 sequence (P08637 17-208 F176V limits assumed): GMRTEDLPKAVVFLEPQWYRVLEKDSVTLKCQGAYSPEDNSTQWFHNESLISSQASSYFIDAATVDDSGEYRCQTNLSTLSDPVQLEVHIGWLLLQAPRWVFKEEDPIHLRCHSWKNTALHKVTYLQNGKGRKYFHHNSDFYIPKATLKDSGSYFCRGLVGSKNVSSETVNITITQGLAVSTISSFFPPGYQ
T6 sequence (P12314 16-292): as the sequence (P12314 16-292) above
T1 sequence (P08637 17-208): as the sequence (P08637 17-208 F176V limits assumed) above, with V160F counted along it
T3 sequence (P08637 17-208): as the sequence (P08637 17-208 F176V limits assumed) above, with V160F counted along it

B1: GpH7-TA40/GpH7-B78/GpL16-k0 (antibody, human IgG1, kappa)
heavy 1: QVQLVQSGAEVKKPGASVTVSCKASGYTFTDYEMHWIRQPPGEGLEWIGAIDPKTGDTAYSESFQDRVTLTADKSTSTAYMELSSLTSEDTAVYYCTRFYSYTYWGQGTLVTVSSASTKGPSVFPLAPSSKSTSGGTAALGCLVKDYFPEPVTVSWNSGALTSGVHTFPAVLQSSGLYSLSSVVTVPSSSLGTQTYICNVNHKPSNTKVDKKVEPKSCDKTHTCPPCPAPEYLWGPSVFLFPPKPKDTLMISRTPEVTCVVVDVSHEDPEVKFNWYVDGVEVHNAKTKPREEQYNATYRVVSVLTVLHQDWLNGKEYKCKVSNKALPAPIEGTISKAKGQPREPQVYTLPPSRKELTKNQVSLTCLVKGFYPSDIAVEWESNGQPENNYKTTPPVLDSDGSFFLYSKLTVDKSRWQQGNVFSCSVMHEALHNRYTQKSLSLSP
heavy 2: QVQLVQSGAEVKKPGASVTVSCKASGYTFTDYEMHWIRQPPGEGLEWIGAIDPKTGDTAYSESFQDRVTLTADKSTSTAYMELSSLTSEDTAVYYCTRFYSYTYWGQGTLVTVSSASTKGPSVFPLAPSSKSTSGGTAALGCLVKDYFPEPVTVSWNSGALTSGVHTFPAVLQSSGLYSLSSVVTVPSSSLGTQTYICNVNHKPSNTKVDKKVEPKSCDKTHTCPPCPAPELLGGPDVFLFPPKPKDTLMISRTPEVTCVVVDVSHEDPEVKFNWYVDGVEVHNAKTKPREEQYNSTYRVVSVLTVLHQDWLNGKEYKCKVSNKALPLPEEKTISKAKGQPREPQVYTLPPSRDELTKNQVSLTCLVKGFYPSDIAVEWESNGQPENNYKTTPPVLDSDGSFFLYSKLTVDKSRWQQGNVFSCSVMHEALHNHYTQESLSLSP
light: DIVMTQSPLSLPVTPGEPASISCQASESLVHSNRNTYLHWYLQKPGQSPQLLIYKVSNRFSGVPDRFSGSGSGTDFTLKISRVEAEDVGVYYCSQNTHVPPTFGQGTKVEIERTVAAPSVFIFPPSDEQLKSGTASVVCLLNNFYPREAKVQWKVDNALQSGNSQESVTEQDSKDSTYSLSSTLTLSKADYEKHKVYACEVTHQGLSSPVTKSFNRGEC
notes: Heterodimerized anti-glypican-3 IgG1 antibody; K334G is in the same H chain as L234Y/G236W/S298A; also called TA40/B78
As to B1, in the experiment with FcγRIIIa, the KD ratio was found to be 0.5.

B2: GpH7-B14/GpL16-k0 (antibody, human IgG1, kappa)
heavy: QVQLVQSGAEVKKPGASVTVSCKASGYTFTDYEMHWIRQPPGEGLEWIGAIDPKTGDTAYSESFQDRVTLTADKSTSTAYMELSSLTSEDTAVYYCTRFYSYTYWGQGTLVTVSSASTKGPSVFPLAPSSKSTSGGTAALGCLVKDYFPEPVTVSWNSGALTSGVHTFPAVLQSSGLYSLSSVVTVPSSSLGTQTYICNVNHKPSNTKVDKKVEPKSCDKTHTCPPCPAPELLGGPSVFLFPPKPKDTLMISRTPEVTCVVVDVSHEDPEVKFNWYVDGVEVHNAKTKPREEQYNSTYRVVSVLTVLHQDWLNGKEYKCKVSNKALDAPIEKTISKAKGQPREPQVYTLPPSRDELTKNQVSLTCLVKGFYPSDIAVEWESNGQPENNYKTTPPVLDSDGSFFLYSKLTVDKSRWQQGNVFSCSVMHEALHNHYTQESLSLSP
light: DIVMTQSPLSLPVTPGEPASISCQASESLVHSNRNTYLHWYLQKPGQSPQLLIYKVSNRFSGVPDRFSGSGSGTDFTLKISRVEAEDVGVYYCSQNTHVPPTFGQGTKVEIERTVAAPSVFIFPPSDEQLKSGTASVVCLLNNFYPREAKVQWKVDNALQSGNSQESVTEQDSKDSTYSLSSTLTLSKADYEKHKVYACEVTHQGLSSPVTKSFNRGEC
notes: P329D in both H chains
On to B2, for which the “FcγRIa-binding activity relative to GpH7-A5/GpH7-B3/GpL16-k0” value with FcγRIa was ≤ 0.2 fold.

B3: GpH7-B15/GpL16-k0 (antibody, human IgG1, kappa)
heavy: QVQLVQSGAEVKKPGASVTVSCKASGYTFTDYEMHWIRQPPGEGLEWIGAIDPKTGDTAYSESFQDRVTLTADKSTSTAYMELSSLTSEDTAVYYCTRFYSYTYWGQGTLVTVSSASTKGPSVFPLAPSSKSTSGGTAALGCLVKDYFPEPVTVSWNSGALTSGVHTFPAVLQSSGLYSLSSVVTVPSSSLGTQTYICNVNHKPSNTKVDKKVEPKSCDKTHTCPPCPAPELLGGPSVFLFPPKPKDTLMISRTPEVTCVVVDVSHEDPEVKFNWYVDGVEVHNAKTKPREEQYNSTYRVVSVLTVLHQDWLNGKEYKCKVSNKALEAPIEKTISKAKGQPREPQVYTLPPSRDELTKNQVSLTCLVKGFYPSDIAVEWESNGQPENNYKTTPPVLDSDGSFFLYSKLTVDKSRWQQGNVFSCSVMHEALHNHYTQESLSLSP
light: DIVMTQSPLSLPVTPGEPASISCQASESLVHSNRNTYLHWYLQKPGQSPQLLIYKVSNRFSGVPDRFSGSGSGTDFTLKISRVEAEDVGVYYCSQNTHVPPTFGQGTKVEIERTVAAPSVFIFPPSDEQLKSGTASVVCLLNNFYPREAKVQWKVDNALQSGNSQESVTEQDSKDSTYSLSSTLTLSKADYEKHKVYACEVTHQGLSSPVTKSFNRGEC
notes: P329E in both H chains
For the molecule B3, the “FcγRIa-binding activity relative to GpH7-A5/GpH7-B3/GpL16-k0” value with FcγRIa is ≤ 0.2 fold.

B4: H240-Kn126/H240-Hl068/L73-k0 (antibody, human IgG1, kappa)
heavy 1: QDQLVQSGAEVKKPGASVKVSCKASGFNIKDTYIQWVRQAPGQGLEWMGRIDPLRKQTKYREKFEGRVTITADTSTNTAYMELSSLRSEDTAVYYCVRSGREFDYWGQGTLVTVSSASTKGPSVFPLAPSSKSTSGGTAALGCLVKDYFPEPVTVSWNSGALTSGVHTFPAVLQSSGLYSLSSVVTVPSSSLGTQTYICNVNHKPSNTKVDKKVEPKSCDKTHTCPPCPAPEYQWGPMVFLFPPKPKDTLMISRTPEVTCVVVDVSDEDPEVKFNWYVDGVEVHNAKTKPREEQYNATYRVVSVLTVLHQDWLNGKEYKCKVSNKDLPAPIEKTISKAKGQPREPQVCTLPPSRDELTKNQVSLWCLVKGFYPSDIAVEWESNGQPENNYKTTPPVLDSDGSFFLYSKLTVDKSRWQQGNVFSCSVMHEALHNHYTQKSLSLSP
heavy 2: QDQLVQSGAEVKKPGASVKVSCKASGFNIKDTYIQWVRQAPGQGLEWMGRIDPLRKQTKYREKFEGRVTITADTSTNTAYMELSSLRSEDTAVYYCVRSGREFDYWGQGTLVTVSSASTKGPSVFPLAPSSKSTSGGTAALGCLVKDYFPEPVTVSWNSGALTSGVHTFPAVLQSSGLYSLSSVVTVPSSSLGTQTYICNVNHKPSNTKVDKKVEPKSCDKTHTCPPCPAPELLGGPSVFLFPPKPKDTLMISRTPEVTCVVVDVSHEEPEVKFNWYVDGVEVHNAKTKPREEQYNSTYRVVSVLTVLHQDWLNGKEYKCKVSNDALPKPIEETISKAKGQPREPQVYTLPPSRCELTKNQVSLSCAVKGFYPSDIAVEWESNGQPENNYKTTPPVLDSDGSFFLVSKLTVDKSRWQQGNVFSCSVMHEALHNHYTQKSLSLSP
light: DIQMTQSPSSLSASVGDRVTITCRASQDIHKYIAWYQQKPGQAPRLLIQYTSTLQPGVPSRFSGSGSGTDYTFTISSLQPEDIATYYCLQYEQLRTFGGGTKVEIKRTVAAPSVFIFPPSDEQLKSGTASVVCLLNNFYPREAKVQWKVDNALQSGNSQESVTEQDSKDSTYSLSSTLTLSKADYEKHKVYACEVTHQGLSSPVTKSFNRGEC
notes: H240-Kn126: Y235Q introduced into H240-Kn120
Usually Kd stands for the concentration at which binding is half-saturated. The low end stands for tighter binding, the high end for weaker binding. Take B4: the Kd with FcgRIIb is 520 nM; with FcgRIIIa F it was 3.7 nM; with FcgRIIa H, 170 nM; with FcgRIIIa V, 0.64 nM; with FcgRIa, 0.4 nM; in the experiment with FcgRIIa R, 76 nM.
